Test results from publication PMC12170906.

Target: RNAP-SigA holoenzyme (Mycobacterium tuberculosis, UniProt P9WGZ1;P9WGY9;P9WGY7;P9WGI1 1-347;1-1178;1-1316;1-528)
Test: EMSA
Conditions: protein: recombinant; chain copies: 2;1;1;1; blunt

RNAP-SigA holoenzyme, sequence (P9WGZ1 whole entry, chain 1 of 4): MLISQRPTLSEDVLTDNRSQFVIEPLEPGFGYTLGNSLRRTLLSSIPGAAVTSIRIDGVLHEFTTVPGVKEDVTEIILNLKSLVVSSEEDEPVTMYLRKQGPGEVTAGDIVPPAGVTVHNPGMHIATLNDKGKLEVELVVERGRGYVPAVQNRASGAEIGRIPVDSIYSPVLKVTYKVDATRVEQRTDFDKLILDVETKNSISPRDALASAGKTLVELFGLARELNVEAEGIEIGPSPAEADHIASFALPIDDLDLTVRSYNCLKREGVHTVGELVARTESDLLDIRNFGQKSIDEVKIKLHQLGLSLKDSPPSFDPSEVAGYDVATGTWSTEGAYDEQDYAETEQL
RNAP-SigA holoenzyme, sequence (P9WGY9 whole entry, chain 2 of 4): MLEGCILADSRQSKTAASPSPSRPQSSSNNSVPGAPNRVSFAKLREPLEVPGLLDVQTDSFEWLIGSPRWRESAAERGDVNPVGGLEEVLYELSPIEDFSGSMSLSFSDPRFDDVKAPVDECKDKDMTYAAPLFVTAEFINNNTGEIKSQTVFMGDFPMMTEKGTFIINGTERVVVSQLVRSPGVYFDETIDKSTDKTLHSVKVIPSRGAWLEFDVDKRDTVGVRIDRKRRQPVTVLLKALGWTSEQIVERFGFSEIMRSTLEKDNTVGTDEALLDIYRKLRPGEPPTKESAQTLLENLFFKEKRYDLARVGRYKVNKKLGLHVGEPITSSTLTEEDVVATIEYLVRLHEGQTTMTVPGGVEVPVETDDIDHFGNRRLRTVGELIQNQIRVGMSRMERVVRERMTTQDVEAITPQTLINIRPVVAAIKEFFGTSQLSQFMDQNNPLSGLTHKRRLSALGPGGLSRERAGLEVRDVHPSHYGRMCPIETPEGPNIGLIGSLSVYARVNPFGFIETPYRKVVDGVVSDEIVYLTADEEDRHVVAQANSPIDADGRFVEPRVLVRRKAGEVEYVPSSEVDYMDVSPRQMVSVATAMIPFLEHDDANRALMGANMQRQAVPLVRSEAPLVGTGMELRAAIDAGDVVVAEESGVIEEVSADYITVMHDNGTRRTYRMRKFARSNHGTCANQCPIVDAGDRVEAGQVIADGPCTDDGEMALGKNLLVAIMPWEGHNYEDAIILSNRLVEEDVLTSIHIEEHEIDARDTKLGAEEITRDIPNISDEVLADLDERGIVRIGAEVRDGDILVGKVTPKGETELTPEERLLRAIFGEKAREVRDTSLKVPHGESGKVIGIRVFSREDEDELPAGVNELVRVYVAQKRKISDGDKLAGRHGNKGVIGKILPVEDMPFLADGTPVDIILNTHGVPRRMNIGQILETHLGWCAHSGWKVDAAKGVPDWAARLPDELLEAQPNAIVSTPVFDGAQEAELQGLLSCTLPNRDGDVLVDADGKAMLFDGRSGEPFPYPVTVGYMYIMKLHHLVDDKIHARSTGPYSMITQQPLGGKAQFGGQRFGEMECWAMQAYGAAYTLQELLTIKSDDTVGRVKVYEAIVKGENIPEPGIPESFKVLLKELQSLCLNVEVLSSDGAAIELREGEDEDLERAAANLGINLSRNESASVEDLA
RNAP-SigA holoenzyme, sequence (P9WGY7 whole entry, chain 3 of 4): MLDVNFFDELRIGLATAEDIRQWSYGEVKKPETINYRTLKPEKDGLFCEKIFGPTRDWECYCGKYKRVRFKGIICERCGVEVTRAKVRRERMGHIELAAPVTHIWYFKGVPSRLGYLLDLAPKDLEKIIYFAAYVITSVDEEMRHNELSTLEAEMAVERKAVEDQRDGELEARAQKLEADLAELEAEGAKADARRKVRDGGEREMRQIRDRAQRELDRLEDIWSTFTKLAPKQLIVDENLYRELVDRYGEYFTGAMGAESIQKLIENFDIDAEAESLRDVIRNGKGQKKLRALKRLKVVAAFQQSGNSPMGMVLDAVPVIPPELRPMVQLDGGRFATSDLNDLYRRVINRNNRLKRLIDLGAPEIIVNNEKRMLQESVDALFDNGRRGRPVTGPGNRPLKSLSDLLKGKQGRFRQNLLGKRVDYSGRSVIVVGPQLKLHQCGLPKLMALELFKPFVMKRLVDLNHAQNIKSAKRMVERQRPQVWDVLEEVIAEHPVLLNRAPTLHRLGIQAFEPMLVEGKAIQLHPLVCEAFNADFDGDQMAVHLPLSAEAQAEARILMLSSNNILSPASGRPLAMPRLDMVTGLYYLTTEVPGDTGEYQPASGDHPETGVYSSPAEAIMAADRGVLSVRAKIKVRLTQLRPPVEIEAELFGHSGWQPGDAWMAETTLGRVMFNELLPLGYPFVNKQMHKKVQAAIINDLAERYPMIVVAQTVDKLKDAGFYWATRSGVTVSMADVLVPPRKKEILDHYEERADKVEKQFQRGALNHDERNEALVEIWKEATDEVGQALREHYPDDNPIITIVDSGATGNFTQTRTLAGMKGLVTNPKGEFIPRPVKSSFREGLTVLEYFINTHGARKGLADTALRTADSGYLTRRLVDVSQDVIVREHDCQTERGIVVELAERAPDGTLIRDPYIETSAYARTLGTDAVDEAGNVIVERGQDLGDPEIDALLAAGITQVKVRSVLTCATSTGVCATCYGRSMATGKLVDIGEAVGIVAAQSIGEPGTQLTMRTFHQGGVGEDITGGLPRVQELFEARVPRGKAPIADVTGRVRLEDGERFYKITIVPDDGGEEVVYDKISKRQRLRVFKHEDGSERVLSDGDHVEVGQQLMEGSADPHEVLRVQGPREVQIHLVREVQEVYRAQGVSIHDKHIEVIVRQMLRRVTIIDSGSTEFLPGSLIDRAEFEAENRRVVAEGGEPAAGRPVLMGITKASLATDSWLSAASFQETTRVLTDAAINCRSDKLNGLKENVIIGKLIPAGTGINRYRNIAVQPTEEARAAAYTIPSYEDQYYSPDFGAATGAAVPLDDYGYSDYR
RNAP-SigA holoenzyme, sequence (P9WGI1 whole entry, chain 4 of 4): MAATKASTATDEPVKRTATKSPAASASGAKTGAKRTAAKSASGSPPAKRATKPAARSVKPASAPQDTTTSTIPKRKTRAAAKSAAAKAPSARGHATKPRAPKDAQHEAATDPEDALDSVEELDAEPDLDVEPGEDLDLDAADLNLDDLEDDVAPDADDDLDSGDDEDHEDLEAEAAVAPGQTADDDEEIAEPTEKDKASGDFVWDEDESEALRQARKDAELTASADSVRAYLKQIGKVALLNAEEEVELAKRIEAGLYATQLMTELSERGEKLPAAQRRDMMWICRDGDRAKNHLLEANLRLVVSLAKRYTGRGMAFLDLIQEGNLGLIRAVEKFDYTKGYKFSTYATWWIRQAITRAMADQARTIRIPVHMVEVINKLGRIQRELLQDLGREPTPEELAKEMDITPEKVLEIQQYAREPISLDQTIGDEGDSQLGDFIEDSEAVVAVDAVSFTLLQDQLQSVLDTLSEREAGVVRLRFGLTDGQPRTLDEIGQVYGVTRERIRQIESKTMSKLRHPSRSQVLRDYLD

B1: rrnAP3/ADPr (non-template strand modified) (dsDNA)
DNA 1: CTATGGATGACCGAACCTGGTCTTGACTCCATTGCCGGATTTGTATTAGACTGGCAGGGTCGCCCCGAAGCGGGCGGAAACAAGCAAGCGTGTTGTTTGAGAACTC
DNA 2: GAGTTCTCAAACAACACGCTTGCTTGTTTCCGCCCGCTTCGGGGCGACCCTGCCAGTCTAATACAAATCCGGCAATGGAGTCAAGACCAGGTTCGGTCATCCATAG
modifications: ADP-ribosyl-thymidine on strand 1 (non-template; DarT; positions inferred near -10 in Fig 3A)
  binding result: binds
